This data set in a line: soluble on expression in E. coli; label from the status in PepcDB or PDB records.
Take “MGSDKIHHHHHHMRKKNYYLVSDGKLRRHENTIYFENEDGKRPIPINSIYAIYALGSLSITSKAISLLAKEGVCIHFFNRYGYYIGSFYPRESLVSGEVVLRQAEHHLDSEKRLHLARAFVEGAILNMARVLKKAEQDDSDVIASLQHLSSAKSIVELMGAEAAARNAYYTKFDEILKNFEFGKRSRMPPENEVNAMISFGNSLLYSAVLSEIYHTQLNPAISYLHEPSERRFSLALDIAELFKPVIVDRLIFYLVNNGIVTESDFDSRLGGILLSEEGKKKFVRHFNERLEKTVKHRKLNRKVSYQRLIRLECYKLVKHFTAVEKYSPFVMWW”: the “soluble on expression in E. coli” value was “not soluble”.

For “MAVVGYISYDNRDTFMNAKDVLSTEIEAVNGKADTKESKECEDTQASDEVALETDSTEEILNAGETVLTSASTESEECVAQVKLGREQVRSKNKEALQKIIDDAGVSEAEKKSAVDAMVKLTENAQMEEDAQMMLEAKGFKNAVVSLSDECCDVIVGKDDVTDEKRAQIEDIIKRKTNIGASNIVISTMD”, the “soluble on expression in E. coli” value is given as “not soluble”.

Regarding “MRGSHHHHHHGMASHITYDLPVAIEDILEAKKRLAGKIYKTGMPRSNYFSERCKGEIFLKFENMQRTGSFKIRGAFNKLSSLTEAEKRKGVVACSAGNHAQGVSLSCAMLGIDGKVVMPKGAPKSKVAATCDYSAEVVLHGDNFNDTIAKVSEIVETEGRIFIPPYDDPKVIAGQGTIGLEIMEDLYDVDNVIVPIGGGGLIAGIAIAIKSINPTIKVIGVQAENVHGMAASYYTGEITTHRTTGTLADGCDVSRPGNLTYEIVRELVDDIVLVSEDEIRNSMIALIQRNKVITEGAGALACAALLSGKLDSHIQNRKTVSIISGGNIDLSRVSQITGLVDA”, the “soluble on expression in E. coli” value is reported as “soluble”.

Regarding “MSLDNIIIIQTKNPNYYAIKYAYKNQYEQFYEEELNIRKKLNYPPFNKIIRIIFRSKNEESAKQKCWEFFEKSKEFLQEEIEHLGPSEAIMKKISKNYRYNIIYLSKSYSLLEKLVNKTKEKVKMTSTVYIEIDYYPISEGHHHHHH”, the “soluble on expression in E. coli” value is “not soluble”.

As to “MEKLTKRQQDILDFIKLKVQEKGYPPSVREIGQAVGLASSSTVHGHLSRLEEKGYIRRDPTKPRAIEILGEDRMDTETQSVIQVPIVGKVTAGLPITAVESVEEHFPLPASIVAGADQVFMLRISGDSMIEAGIFDGDLVVVRQQQSAYNGEIVVALTEDNEATVKRFYKEKDHFRLQPENSSLEPIILKQVSVIGKVIGVYRDLH”, the “soluble on expression in E. coli” value is “not soluble”.

In the case of “GDSTILKVLQSNIQHVQLYENPVLQEKALTCIPVSELKRKAQEKLFRARKLDKGTNVSDEDFLLLELLHWFKEEFFRWVNNIVCSKCGGETRSRDEALLPNDDELKWGAKNVENHYCDACQLSNRFPRYNNPEKLLETRCGRCGEWANCFTLCCRALGFEARYVWDYTDHVWTEVYSPSQQRWLHCDACEDVCDKPLLYEIGWGKKLSYIIAFSKDEVVDVTWRYSCKHDEVMSRRTKVKEELLRETINGLNKQRQLSLSESRRKELLQRIIVELVEFISPKTPRPGLEHHHHHH”, the “soluble on expression in E. coli” value is listed as “soluble”.

In the case of “MPNSSIQIWLQRQIALRTFPPNREDWYVKNGFGNSEMSLEERFASFVEAIRQEDSPYHEQLSGIDFQRFEIEVTLANQKTCMTEVIGFQNNSNQSSSTPNEKFKAVGKGKHVIYFTGIGTQYQDCLIDIAKAVQITGAHYYAFEYPGMRKLGGEVLEVNDMVNTGIALANTLLEKGISIDDILFQGDSFGAAVAKKVSDQFKLQSNVTVRCILNNTFSTFQAAVEGNLGAFSTLRYTVRPLLRYTGWDIRPGEGYGQDTPYQIHVNHTGDLTLGAGHATLAESIESNSQLEHFVDPCPEEYRIKRDIYKQWHWASLSEQGITFLETKYGRNSDGQLDTHLADLYLLKYDTGLGVYESFICKYLEDSNDYIASHPQKLSLDELPRPLESETVSLRQLIVSVLPSRPSIAGFFSRSTPVIEEVETEKQEQKSIELK”, the “soluble on expression in E. coli” value is on record as “soluble”.

With “MGSDKIHHHHHHMVATLAEQIKAEAIALGFDKVGIASVDPPDTEALAALDRWLAQGYQAEMDWMASDRRRDVRNLLPNAQSVICVALNYYSGDHPDPSPEVGKIARYAWGRDYHRVVEKRLKALARWLQTQQPDCECRWYVDSGPIADKVWAQRAGLGWIAKNSNVISREFGSWIFLGELVTTLALPADRPHTAHCGSCSRCLEACPTQAIVEPYVVDANRCIAYHTIENRAADLPAAIAQNLQGWVAGCDICQEVCPWNQRFAQITTLPDLQPRSELLAPALAELATLSEEAWDQQFQGSALRRIKPAMWRRNSRANLRQQSEGNRLS”, the “soluble on expression in E. coli” value is “not soluble”.

With “FHSVLIANVNSGLGELASDADLTQVKGKTLTFGSESSTSGRLMPQYYLEQAGVSLEDFQGEVGFSASHDATIQLVEAGTYDLGMLNEQVWNSRVEAGEVDTNRVNVIWRSPAYYDYHWVISPDVDERYGEG”, the “soluble on expression in E. coli” value was “not soluble”.

In the case of “GSTSAKRIQKELAEITLDPPPNCSAGPKGDNIYEWRSTILGPPGSVYEGGVFFLDITFSPDYPFKPPKVTFRTRIYHCNINSQGVICLDILKDNWSPALTISKVLLSICSLLTDCNPADPLVGSIATQYMTNRAEHDRMARQWTKRYAT”, the “soluble on expression in E. coli” value is “soluble”.

Take “MNKEALVNRLNASAKRQKADIVIKNGKIMDVYNQEWIYEDIAITDGVIVGLGEYEGENIIDAEGQMIVPGFIDGHVHIESSMVTPIEFAKAVLPHGVTTVVTDPHEIANVSGEKGIEFMLEQARHTPLNIHFMLPSSVPAASFERSGAILKAADLKPFYEEEEVLGLAEVMDYVSVQQAEKDMVQKLLDARVAGKRIDGHLAGLSTDLINIYRTAFVLNDHEVTSKEEALDRIRRGMYVMMREGSVAKNTLNVLPAVNEKNRTPVFFCTDDKHVDDLLSEGSVNHQVKMAIQAGLNPFLAYQLGSLNAAECYGLDTKGAIAPGFDADLLFVSDLENVTVTMTMVKGQTVAEDSKAVYQDHASTAAPDQALLDSVKLAAPLNKQDFHMPIDSEQQINVIQIIPNQLETRLVQVPAPVAREFEPDTELDLLKIAVVERHKGLKETGLGVVKGFGFKSGAIATTISHDSHNIIAVGTNDEDIAAAVNKLQEIGGGLTIIKNGEELHSVPLPIAGLLSDQSAEQVNQSLLTLHDKLSLIGFTGGFNPFLTLSFLALPVIPDIKMTTTGLFDVKSFQHISLQ”: the “soluble on expression in E. coli” value is reported as “not soluble”.

Turning to “VIESMSDGYIVVDTSNSIVDVNRAVLELAGKTRKEVLGKNLTYLFGEGVELLCHTPEGDFGREISLKSGSEIKFFTVSVSPLMARNEPEGKLIMIHDIT”, the “soluble on expression in E. coli” value is “not soluble”.

As to “MAHILLIPANSPFVVTGALSAKVSTVEEFAQKHRAFAIFNAGFFDPANQKSTSYVVVTGQMVADPKDNERLVNNPQLKPYLNLIFNRSEFRRYLCGQTTRYDITLHNESPPANCRLVDAIGAGPRLLPKLTSVPEGFVDNAKGRDALLSKQLNARTAVGITSEGSIILVMVAQKPSKPKNSGISLVQLADLMKKLGASAAMNLDGGSSSSLYYNGKAFYGKFDLQGNPIKRKVKSVLLVQENVRNLEHHHHHH”, the “soluble on expression in E. coli” value is “not soluble”.

Regarding “SLKTIDMKYLRLLAKEYPTIAKTATEIINLEAIMNLPKGTEHFLSDVHGEYSAFEQVLRNGSGVVKRKIRDIFGAELDDAEINSLSTLIYYPEEKMDLLASETEDLQAWYRTTLFRLIELCQYVASKYTRSKVRKAMPEDFAYILEELLHENYNEDDKKLYYEEILQHIISLGRAEEFISALSLLIQQLVVDHLHIVGDVYDRGPYPDKIMDTLMNYHSLDFQWGNHDILWMGAASGSRVCAANVIRISARYLNLDILEDSYGISLRPLALFADEVYKDDPCTYFQPKNEENINYSNAEITQIARMHKAISIIQFKLEGEIINRRKEFDMDHRLLLQFIDYKKGTIHLKGKEYLLLDSHFPTINPEKPYELTDAERELIGKITAAFKNCRRLQKHVQFLYSKGSMFLTYNGNLLYHGCIPLHEDGTFMEMKLRGEKYAGRSLLEQFEILTREAYVRPTGTKEKKYACDIVWYLWTGAISSLFGKSEMTTFERYFVAEKETHTEEKNPYYKLRNNELICKQILEEFGLDGECGHIINGHTPVKEGKGESPIKANGKMLVIDGGFAKAYHKETNLAGYTLLFNSYGLQLVSHQPFTTKEDAIKNETDILSTRQVIEMEINRKRVRDTDIGAKLSEQAEDLKLLLDAYRNGLLHENR”, the “soluble on expression in E. coli” value was “soluble”.

For “MGSDKIHHHHHHMVTYVIQGILKEEEDRMVRRSFLIKGNEIAYVNGRLDKLTFIRMNGDQFCMAPGRVMNNDELETNLSISSFKKTLTSMIEKGCTSVVYFASANYERQLPFVIKQAYHRMNNSFIDYVIGLSLPAHLLRPSVLRFCKKEKIPVLRFSLQSIDDLYDVPWSRLQDVLYSYPIVLLPNMNELLEGERKLAEDLWVSLCEAHRIYGTTHPPNSLEAWPKTLLKLVGLYPKKGELRVGGDADYLLYYVARTNATLAETCDLDYDRDKPNVVVLRGSVLKANEVTSIRPGGGRRIRITRPGQFIPVSEASHWGM”, the “soluble on expression in E. coli” value is reported as “not soluble”.

For the sequence “MYLSRITLHTSELSPAQLLHLVERGEYVMHQWLWDLFPGSKERQFLYRREELQGAFRFFVLSQEQPAASAIFDVQTRPFAPTLSAGQTLRFNLRANPTVCKNGKRHDLLMEAKRQRKTQGDSQDIWSYQQQAALTWLARQGEQNGFTLREASVDAYRQQQIRRGKDRQMIQFSSVDYTGVLVINEPALFLQRLAQGFGKSRAFGCGMMMIKPGDDA”, the “soluble on expression in E. coli” value was “not soluble”.

On to “MIGGRLKSLRGKRTQEEIASHIGVSRARYSHYENGRSEPDYDTLQKLADYFQVTTDYLLTGKDKKSDDDMFSDPDLQLAYRDMQDFSPESKQQAIEFINYLKEKEKNRKPKNK”, for which the “soluble on expression in E. coli” value was “not soluble”.

As for “MSTVVEKSGEAKPGKVEVGVKLRGAEKVARIPVKIIPTEELPKKPDWIRVRIPVSPEVDRIKQLLRKHKLHSVCEEASCPNLGECFSGGTATFMIMGDICTRRCPFCDVGHGRPKPLDVDEPTNLAIAIADLRLKYVVITSVDRDDLRDGGAQHFADCLREIRKLSPGIQLETLVPDYRGRMDIALEITANEPPDVFNHNLETVPRLYRSSRPGSDFEWSLDLLQKFKQMVPHVPTKSGLMLGLGETDDEVIEVMQRMREHDIDMLTLGQYLQPSRNHLPVQRFVHPDTFAWFAEEGEKMGFKNVASGPLVRSSYHADQQAHGNKIG”, the “soluble on expression in E. coli” value was “not soluble”.

“MSLEVKLNENERIDDLQCKGLKIIQKKAGFCFGLDAVLLANFADIKKGDTVIDLGTGTGIIAILIAGKTEAKSIIGLEIQEEMAEMAQRSVKLNNLEDRVKIVCGDIKNSVEMFGASKFDVVVTNPPYMNQGGGLLNISDTKAISRHEIKCTLEDVIKASSKLLVPGGQFAMVHRPDRLVDIIWLMRKYSIEPKYLQFVHPYPRKKANLILIKGARQGRVQLKMLEPLYVYDENGNYSKEIDNIYGREVRNEGHHHHHH”: the “soluble on expression in E. coli” value is “soluble”.

Consider “MASRLFGVKCHNTDSEPLKNEDLLKNLLTMGVDIDMARKRQPGVFHRMITNEQDLKMFLLSKGASKEVIASIISRYPRAITRTPENLSKRWDLWRKIVTSDLEIVNILERSPESFFRSNNNLNLENNIKFLYSVGLTRKCLCRLLTNAPRTFSNSLDLNKQMVEFLQAAGLSLGHNDPADFVRKIIFKNPFILIQSTKRVKANIEFLRSTFNLNSEELLVLICGPGAEILDLSNDYARRSYANIKEKLFSLGCTEEEVQKFVLSYPDVIFLAEKKFNDKIDCLMEENISISQIIENPRVLDSSISTLKSRIKELVNAGCNLSTLNITLLSWSKKRYEAKLKKLSRFAHHHHHH”, for which the “soluble on expression in E. coli” value is listed as “soluble”.

“MKQESASQSTPPPSLSPAPSSAQPFWGDGDPQALWIFGYGSLVWKPDFAYSDSRVGFVRGYSRRFWQGDTFHRGSDKMPGRVVTLLEDHEGCTWGVAYQVRGEQVNEALKYLNVREAVLGGYDTKEVTFYPQDTPDQPLTALAYVATPQNPGYLGPAPEEVIATQILACRGFSGHNLEYLLRLADFMQLCGPQAQDEHLEAIVDAVGTLLPCSYLPEQPLALT”: the “soluble on expression in E. coli” value is listed as “soluble”.

The values are drawn from the DeepSol protein solubility set.
